Measured values published in patent US20200030424A1 (INNOVATIVE CELLULAR THERAPEUTICS, published 2020).

T1: Human CD19 expressed on cell surfaces (Raji cells; CD19-K562 cells) (human, UniProt P15391 20-556)
T1 construct: whole, on cells; also called antigen CD19; human CD19 antigen
T1 sequence (looked up): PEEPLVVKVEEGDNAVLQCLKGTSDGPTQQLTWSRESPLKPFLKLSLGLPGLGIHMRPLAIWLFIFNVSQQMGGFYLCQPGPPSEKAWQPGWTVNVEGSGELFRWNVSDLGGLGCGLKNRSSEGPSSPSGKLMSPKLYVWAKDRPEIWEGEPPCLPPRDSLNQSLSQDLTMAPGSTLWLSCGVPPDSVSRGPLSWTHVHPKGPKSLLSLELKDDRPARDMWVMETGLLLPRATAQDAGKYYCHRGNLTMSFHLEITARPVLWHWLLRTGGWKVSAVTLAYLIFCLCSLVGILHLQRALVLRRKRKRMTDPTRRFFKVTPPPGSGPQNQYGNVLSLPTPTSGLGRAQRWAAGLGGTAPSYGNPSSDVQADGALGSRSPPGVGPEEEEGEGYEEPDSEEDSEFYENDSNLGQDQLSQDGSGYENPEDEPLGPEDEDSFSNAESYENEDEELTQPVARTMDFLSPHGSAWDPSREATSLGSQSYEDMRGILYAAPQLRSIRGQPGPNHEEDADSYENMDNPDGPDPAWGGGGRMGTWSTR


The binders below were run against T1, Human CD19 expressed on cell surfaces … (assay: flow cytometry on CD19-K562 cells).

Row | MFI(Geo) | Binder
1 | 147 | h2FMC63VH + L5F3 (antibody, V domains shown, Humanized monoclonal antibody transiently expressed in HEK293 cells, with heavy chain from pTSEG1n-h2FMC63VH; also called L5F3 (humanized antibody)) VH: EVQLVESGGGLVQPGGSLRLSCAASGVSLPDYGVSWVRQAPGKGLEWVSVIWGSETTYYNSALKSRFTISRDNAKNSLYLQMNSLRAEDTAVYYCAKHYYYGGSYAMDYWGQGTLVTVSS VL: SYELTQPPSVSVAPGQTARITCGGNNLGDNSARWYQQKPGQAPVLVIYGNSNRPSGIPERFSGSNSGNTATLTISGTQAEDEADYYCQVTDTRSTSVVFGGGTKLTVL
2 | 55.5 | h2FMC63VH + L2D12 (antibody, V domains shown, Humanized monoclonal antibody transiently expressed in HEK293 cells, with heavy chain from pTSEG1n-h2FMC63VH; also called L2D12 (humanized antibody)) VH: EVQLVESGGGLVQPGGSLRLSCAASGVSLPDYGVSWVRQAPGKGLEWVSVIWGSETTYYNSALKSRFTISRDNAKNSLYLQMNSLRAEDTAVYYCAKHYYYGGSYAMDYWGQGTLVTVSS VL: SYELTQPPSVSVAPGQTARITCGGNDLRAQYVHWYQQKPGQAPVLVMYDDSKRPSGIPERFSGSNSGNTATLTISGTQAEDEADYYCQSWDRTSEPKVFGGGTKLTVL
3 | 125 | h2FMC63VH + L2D8 (antibody, V domains shown, Humanized monoclonal antibody transiently expressed in HEK293 cells, with heavy chain from pTSEG1n-h2FMC63VH; also called L2D8 (humanized antibody)) VH: EVQLVESGGGLVQPGGSLRLSCAASGVSLPDYGVSWVRQAPGKGLEWVSVIWGSETTYYNSALKSRFTISRDNAKNSLYLQMNSLRAEDTAVYYCAKHYYYGGSYAMDYWGQGTLVTVSS VL: DIQMTQSPSSLSASVGDRVTITCRASQSVGSFLAWYQQKPGKAPKLLIYGASSRESGVPSRFSGSGSGTDFTLTISSLQPEDFATYYCQQTYHNPETFGQGTKVEIK

What follows are binders tested against T1, Human CD19 expressed on cell surfaces … (assay: flow cytometry on Raji cells).
Procedure: Raji cell is a strain derived from human B lymphoma cell line. Raji cells were purchased from Chinese Academy of Medical Sciences, Institute of Basic Medical Cell Resource Center. The surface of Raji cells expresses antigen CD19, and the anti-CD19 antibody can be used to analyze the binding capacity of recombinant humanized monoclonal antibodies. By flow cytometry (IFA), binding abilities of the four recombinant humanized antibodies were analyzed.

Row | MFI (GeoMean) | Binder
4 | 67 | hFMC63 (antibody, V domains shown, Humanized heavy chain hFMC63VH in pTSEG1n-S (human heavy constant)) VH: QVQLQESGPGLVKPSETLSLTCTVSGVSLPDYGWSWIRQPPGKGLEWIGRIWGSETTYYNPSLKSRVTISVDTSKNQFSLKLSSVTAADTAVYYCAKHYYYGGSYAMDYWGQGTLVTVSS VL: DIQMTQTTSSLSASLGDRVTISCRASQDISKYLNWYQQKPDGTVKLLIYHTSRLHSGVPSRFSGSGSGTDYSLTISNLEQEDIATYFCQQGNTLPYTFGGGTKLEIK
5 | 186 | h1FMC63 (antibody, V domains shown, Humanized heavy chain h1FMC63VH in pTSEG1n-S (human heavy constant)) VH: QVQLQESGPGLVKPSETLSLTCTVSGVSLPDYGVSWIRQPPGKGLEWIGVIWGSETTYYNSALKSRVTISVDTSKNQFSLKLSSVTAADTAVYYCAKHYYYGGSYAMDYWGQGTLVTVSS VL: DIQMTQTTSSLSASLGDRVTISCRASQDISKYLNWYQQKPDGTVKLLIYHTSRLHSGVPSRFSGSGSGTDYSLTISNLEQEDIATYFCQQGNTLPYTFGGGTKLEIK
6 | 330 | h2FMC63 (antibody, V domains shown, Humanized heavy chain h2FMC63VH in pTSEG1n-S (human heavy constant); also called third version of a humanized antibody) VH: EVQLVESGGGLVQPGGSLRLSCAASGVSLPDYGVSWVRQAPGKGLEWVSVIWGSETTYYNSALKSRFTISRDNAKNSLYLQMNSLRAEDTAVYYCAKHYYYGGSYAMDYWGQGTLVTVSS VL: DIQMTQTTSSLSASLGDRVTISCRASQDISKYLNWYQQKPDGTVKLLIYHTSRLHSGVPSRFSGSGSGTDYSLTISNLEQEDIATYFCQQGNTLPYTFGGGTKLEIK
